Our source for the koff, kon and Kd values is patent publication US20150111231A1.

Assay [1] has as its target human sAPPβ (MESO SCALE DISCOVERY) (human) (UniProt P05067). Description: SPR (ProteOn, GLM chip), 5H10 immobilised, sAPPβ as analyte.
For assay [2] the target is unchanged. Description: SPR (ProteOn), 5H10 immobilized on GLM chip, sAPPβ as analyte at 1000, 250, 62.5, 15.6, 3.91 nM.

human sAPPβ (MESO SCALE DISCOVERY) (human), sequence (P05067 18-671): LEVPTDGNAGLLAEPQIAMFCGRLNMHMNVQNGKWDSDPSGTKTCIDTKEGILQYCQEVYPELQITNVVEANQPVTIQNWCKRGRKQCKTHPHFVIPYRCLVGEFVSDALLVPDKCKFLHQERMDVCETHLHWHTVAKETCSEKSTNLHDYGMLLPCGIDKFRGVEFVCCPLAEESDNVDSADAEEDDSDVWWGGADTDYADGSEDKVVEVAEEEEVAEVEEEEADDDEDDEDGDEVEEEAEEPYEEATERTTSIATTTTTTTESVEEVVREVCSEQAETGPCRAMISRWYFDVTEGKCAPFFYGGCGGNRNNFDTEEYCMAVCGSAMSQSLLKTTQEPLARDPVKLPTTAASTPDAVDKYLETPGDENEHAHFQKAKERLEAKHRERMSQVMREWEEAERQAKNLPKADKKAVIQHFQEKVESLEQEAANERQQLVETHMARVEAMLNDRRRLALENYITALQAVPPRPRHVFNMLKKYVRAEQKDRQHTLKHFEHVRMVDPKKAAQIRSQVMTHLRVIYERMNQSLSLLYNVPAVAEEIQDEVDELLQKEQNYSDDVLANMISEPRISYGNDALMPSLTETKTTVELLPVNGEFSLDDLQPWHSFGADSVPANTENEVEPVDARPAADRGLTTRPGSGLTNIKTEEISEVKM

B1: anti-internal structure antibody 5H10 (antibody, IgG1, V domains shown)
VH: QVQLQQSGTELAKPGASVKMSCKASGYTFIDYWMHWIKQSPGQGLEWIGFINPRSGSTTYNQKFRDKATLTVDTSSSTAYMQLTSLTSEDSAVYYCTRPDFDYFDYWGQGTTLTVSS
VL: DVLMTQTPLSLPVSLGDHASISCRSSQSIVQSNGNTYLEWYLQKPGQSPKLLIYKVSNRFSGVPDRFSGSGSGTDFTLKISSVEAEDLGIYYCFQASHVPLTFGAGTKLELKR
In the case of B1, in assay [1], the koff (as a rule, the first-order rate constant of dissociation) was 5.62e-05 s⁻¹ and the kon (usually a measure of how fast the partners come together) is 90800 M⁻¹ s⁻¹. For the same molecule, the Kd (in general, a measure of binding affinity in units of concentration) in assay [2] worked out at 0.62 nM.
